Data published in patent US12692303.

Molecular target: IL-23-p40 (human) (UniProt P29460)
Experiment: Binding ELISA: IL-23-p40 coated at 2 ug/ml, antibody dilution series 0 to 5 ug/ml, goat anti-human IgG secondary antibody, OD450 (reference 650 nm). The sheet prints no unit on the x axis; ng/ml follows from the range in paragraph 77 (highest point at 5000)

Chain of IL-23-p40 (human) (P29460 23-328 limits assumed): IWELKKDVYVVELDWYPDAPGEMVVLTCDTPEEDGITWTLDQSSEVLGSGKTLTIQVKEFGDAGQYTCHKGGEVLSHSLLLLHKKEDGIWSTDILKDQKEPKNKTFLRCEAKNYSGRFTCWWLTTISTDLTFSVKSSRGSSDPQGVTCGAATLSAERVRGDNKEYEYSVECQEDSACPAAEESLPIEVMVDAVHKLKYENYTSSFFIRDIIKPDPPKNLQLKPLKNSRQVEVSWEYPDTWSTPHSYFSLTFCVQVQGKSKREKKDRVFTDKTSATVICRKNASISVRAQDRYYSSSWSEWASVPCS

EC50: 0.0179 µg/mL
Substance: IL-23 p40 specific antibody QX001S
